From publication PMC6568194, “Molecular and Biochemical Characterization of a Type II Thioesterase From the Zoonotic Protozoan Parasite Cryptosporidium parvum” (Frontiers in Cellular and Infection Microbiology, 2019)

Substrate: CCCCCCCCCC(=O)SCCNC(=O)CCNC(=O)[C@H](O)C(C)(C)COP(=O)(O)OP(=O)(O)OC[C@H]1O[C@@H](n2cnc3c(N)ncnc32)[C@H](O)[C@@H]1OP(=O)(O)O
Test: purified protein
Type: biochemical, Cryptosporidium parvum
Conditions: 0.1 M HEPES pH 7.4, 50 mM KCl, 50 μM DTNB, MBP-tag background subtracted, temperature not given

B1: CpTEII (MBP-CpTEII) (Cryptosporidium parvum Iowa II) (protein)
chain: MSKSDFDKWFPSYSKVNSHLINLGSRNQPICRLLCIHGAGGSDQIFVKKDLNTGRESSNILLDYAQENGIELLVLQLPGRAGRSHEACYEDIATLINDFYPVFKSHFFGKANLTEYIELIPWVIVGHSMGGLIGFELLKRIKFEQLKDFSAKFGVTDQSGFENKIVKLLREKRIFPELFIIMSSFPPNIPEYDRPWRKNEELNDEEFKQECREWGINQNVFKKGIWEEFEKQLRCDFTMFDSFEMNLVDKIFYCSNQSLYNFMYPLGVDAQLWSASQDSKVTKDIMNKWKELLTSNGNSLDTREIDAQHNFLHDPKARKEWMQDLSTSLDKIILDLEYY
notes: entire ORF (339 aa, 39 kDa) from genomic DNA, N-terminal MBP tag kept (intact fusion assayed), C-terminal His-tag, pMAL-c2e-TEV, expressed in E. coli Rosetta 2
With B1 the Km was 172.2 µM and the kcat was 1.52 min⁻¹.
